Results on 1 substance are retold here after patent publication US20250101113A1.

This experiment concerns the target human CD94 on cells (human) (UniProt Q13241). The experiment can be described thus: cell-based or functional assay.
UniProt Q13241, sequence (Q13241 whole entry): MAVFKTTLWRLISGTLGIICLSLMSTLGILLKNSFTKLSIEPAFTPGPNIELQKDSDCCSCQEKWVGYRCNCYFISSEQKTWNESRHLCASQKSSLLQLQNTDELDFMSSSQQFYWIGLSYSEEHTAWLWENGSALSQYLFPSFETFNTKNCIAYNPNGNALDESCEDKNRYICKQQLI

With “commercial murine anti-CD94 antibody (clone DX22 from Biolegend Catalog #305502)”, the CD107a expression on IL-2-activated NK cells co-cultured with HLA-E-expressing SP-53 cells (% of cells) stood at 16%.
